From publication PMC4463592

Tests used:
[1] = test system: preKARS2 (precursor of mitochondrial lysyl-tRNA synthetase) (Homo sapiens); experiment: EMSA, Scatchard; conditions: no enolase; 0.5 uM preKARS2 (Methods print 0.5 mM); none (unmodified transcript); 20 mM Tris-HCl pH 7.5, 150 mM NaCl, 10 mM MgCl2, 5 mM DTT, 10% glycerol, 0.1 mg/mL BSA, 30 C 15 min; native 8% PAGE in 0.5x Tris-borate pH 8.3, 5% glycerol
[2] = test system: human enolase beta (ENO3, muscle) (Homo sapiens); experiment: EMSA; conditions: apparent Kd, one value given for all three isoforms; none (unmodified transcript); 20 mM Tris-HCl pH 7.5, 150 mM NaCl, 10 mM MgCl2, 5 mM DTT, 10% glycerol, 0.1 mg/mL BSA, 30 C 15 min; native 8% PAGE in 0.5x Tris-borate pH 8.3, 5% glycerol
[3] = test system: preKARS2 (precursor of mitochondrial lysyl-tRNA synthetase) (Homo sapiens); experiment: EMSA; conditions: apparent Kd with human enolase gamma present; no ternary complex detected; none (unmodified transcript); 20 mM Tris-HCl pH 7.5, 150 mM NaCl, 10 mM MgCl2, 5 mM DTT, 10% glycerol, 0.1 mg/mL BSA, 30 C 15 min; native 8% PAGE in 0.5x Tris-borate pH 8.3, 5% glycerol
[4] = test system: human enolase gamma (ENO2, neuronal) (Homo sapiens); experiment: EMSA; conditions: apparent Kd, one value given for all three isoforms; none (unmodified transcript); 20 mM Tris-HCl pH 7.5, 150 mM NaCl, 10 mM MgCl2, 5 mM DTT, 10% glycerol, 0.1 mg/mL BSA, 30 C 15 min; native 8% PAGE in 0.5x Tris-borate pH 8.3, 5% glycerol
[5] = test system: human enolase alpha (ENO1) (Homo sapiens); experiment: EMSA; conditions: apparent Kd, one value given for all three isoforms; none (unmodified transcript); 20 mM Tris-HCl pH 7.5, 150 mM NaCl, 10 mM MgCl2, 5 mM DTT, 10% glycerol, 0.1 mg/mL BSA, 30 C 15 min; native 8% PAGE in 0.5x Tris-borate pH 8.3, 5% glycerol

Substance: tRK1 (yeast tRNALys acceptor 1) T7 transcript
- Kd [1]: 300 nM
- Kd [2]: 2000 nM
- Kd [3]: < 20 nM
- Kd [4]: 2000 nM
- Kd [5]: 2000 nM
